Article PMC12738692, “Identification, characterization, and structure-activity relationship of the ASIC3-selective peptide WRPRFa” (Communications Chemistry, 2025)
Residue numbers refer to the chain shown, from its start. Values joined by “and” are separate entries in the source; they are usually repeats but may differ in a detail not shown here. Equal values may be shown once. Read-outs that look alike come from different tables or passages of the source. Where a SMILES comes first, the peptide text is derived from it. Where no end group is shown, it is not given here. [ ]: non-standard residue; d: D form. The star is where a group is joined. Arg(Me2a) = CN(C)C(=N)NCCC[C@H](N)C(=O)O; Cha = N[C@@H](CC1CCCCC1)C(=O)O; pNA = O=[N+]([O-])c1ccc(N*)cc1

What was measured:
[1] = target: T1, human ASIC3 (Homo sapiens, UniProt Q9UHC3); experiment: cell-based
T1 construct: CHO cells stably expressing human ASIC3 (NM_004769.1)
T1 sequence (Q9UHC3 1-531): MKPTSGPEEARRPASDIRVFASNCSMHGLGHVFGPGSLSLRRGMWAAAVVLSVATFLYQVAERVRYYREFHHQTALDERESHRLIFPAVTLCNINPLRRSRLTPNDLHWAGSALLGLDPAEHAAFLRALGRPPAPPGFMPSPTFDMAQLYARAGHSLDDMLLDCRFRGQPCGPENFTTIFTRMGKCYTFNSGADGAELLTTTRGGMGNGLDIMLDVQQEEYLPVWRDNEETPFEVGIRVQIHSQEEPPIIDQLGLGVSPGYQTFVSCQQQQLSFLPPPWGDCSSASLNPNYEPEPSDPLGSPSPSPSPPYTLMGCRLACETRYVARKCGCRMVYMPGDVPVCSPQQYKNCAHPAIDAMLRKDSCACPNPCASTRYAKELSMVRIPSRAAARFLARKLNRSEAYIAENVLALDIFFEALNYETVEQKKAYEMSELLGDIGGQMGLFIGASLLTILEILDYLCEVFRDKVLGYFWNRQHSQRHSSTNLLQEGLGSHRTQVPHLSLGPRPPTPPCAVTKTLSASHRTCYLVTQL

[2] = target: T1, human ASIC3; experiment: QPatch II peptide concentration-response (I3s/Ipk); format: cell-based; conditions: WT ASIC3, QPatch II, read-out: EC50 (95% CI)
Procedure: RFamide peptide activity on ASIC3 was measured on the QPatch II platform (Sophion, Ballerup, Denmark) using either a CHO or HEK stable cell line and analyzed with Sophion Analyzer software (version 5.2). Prior to recording, the cells were washed twice in PBS (Gibco, Paisley, UK) and treated with Detachin (Genlantis, San Diego) for 3 min, then resuspended in their respective growth media without serum for a concentration of 2 × 10^6 cells/ml. A minimum of 5 mL of cells was added to the QStirrer, which was placed on the deck of the QPatch II and allowed to incubate at room temperature for a minimum of 20 min.
The bath solution contained 135 mM NaCl, 5 mM KCl, 4.8 mM CaCl2, 1 mM MgCl2, 10 mM HEPES, 10 mM MES, and 10 mM glucose adjusted to pH 7.4 with NaOH. The intracellular solution contained 65 mM CsF, 65 mM CsCl, 10 mM HEPES, 5 mM EGTA, 1 mM MgCl2, adjusted to pH 7.4 with CsOH. Cells were held at -60 mV and ASIC currents were evoked with 3 s applications of pH 6.3 buffer. Peptides were preincubated for at least 2 min. The extracellular solution was changed by dispensing 5 µL of buffer through the ~1.7 µL recording chamber, with a solution switch time of 100 ms, that exchanges 99% of the solution. Signals were acquired at 1 kHz and low-pass filtered at 300 Hz. Experiments performed on QPatch II are specifically indicated in the text.

[3] = target: T2, ASIC3 E78Q (Homo sapiens, UniProt Q9UHC3, E78Q); experiment: MPC peptide activity on ASIC3 E78Q mutant (I3s/Ipk, peak current, double mutant cycle); format: cell-based; conditions: read-out: EC50 (95% CI)
T2 construct: human ASIC3 (NM_004769.4); P2A-mCherry reporter (C, cleaved yes); expressed in transfected cells; host or cells: CHO cells (85050302, Sigma), transient transfection
T2 sequence (Q9UHC3 1-531 E78Q): T1 sequence (Q9UHC3 1-531) with E78Q
Source text: We then asked which of the two WRPRFa arginines interacts with the E78/E421 pair. […] To this end, we used a double mutant cycle approach to identify coupling between site 2 or site 4 of WRPRFa with the E78/E421 pair. In this case, the double mutant cycle experiment compared the change in potency caused by single mutations in either WRPRFa or ASIC3 against the change in potency caused by simultaneous mutations in WRPRFa and ASIC3. A coupling coefficient (Ω) can be calculated by dividing the product of the WT/WRPRFa potency and double mutant potency by the product of the two single mutant potencies.
For peptide concentration-response curves, Bottom was set to 0 and Top was constrained to ≤ 1 for peptides that approached plateau phase or where I3s/Ipk reached 1. […] For activation- or desensitization-pH curves, Bottom was set to 0 and Top constrained to 1.

[4] = target: T1, human ASIC3; format: cell-based; conditions: for Mean (I3s/Ipk), arithmetic / Geometric mean (I3s/Ipk): QPatch II; for Mean (I3s/Ipk), arithmetic: CHO cells
[5] = target: T3, ASIC3 E378Q (Homo sapiens, UniProt Q9UHC3, E378Q); experiment: MPC peptide activity on ASIC3 E378Q mutant; format: cell-based; conditions: read-out: EC50 (95% CI)
T3 construct: human ASIC3 (NM_004769.4); P2A-mCherry reporter (C, cleaved yes); expressed in transfected cells; host or cells: CHO cells (85050302, Sigma), transient transfection
T3 sequence (Q9UHC3 1-531 E378Q): T1 sequence (Q9UHC3 1-531) with E378Q
Procedure: (§1) We individually mutated the four glutamates to glutamine to remove their charge but maintain the side chain structure (Fig. 4C). We tested each mutant by incubating HEK cells stably expressing ASIC3 or CHO cells transfected with mutant ASIC3 with 30 µM WRPRFa before a pH 6.3 acid stimulus.
(§2) All mutagenesis was performed at Genscript, and sequences were verified by nanopore sequencing by Plasmidsaurus (Eugene, OR). The numbering of ASIC3 amino acids is based on RefSeq NP_004760.1. Plasmids were transfected into CHO cells using Lipofectamine 3000 (Thermo) according to the manufacturer’s protocol. Cells were used for patch-clamp recordings 24–48 h after transfection.
(§3) CHO and HEK cells were tested in the whole-cell configuration on MPC platforms using an Axopatch 200B amplifier (Axon Instruments, San Jose, CA) and a Digidata 1322A or Digidata 1440A digitizer (Axon) using pClamp 9.2 or 10.7 (Molecular Devices, San Jose, CA), respectively. When testing transfected cells, red fluorescence from the cleaved mCherry reporter was used to identify cells expressing ASIC3, ASIC131, or ASIC313. For cells expressing transfected ASIC1a or ASIC2a, the green signal from the cleaved eGFP reporter was used. All electrophysiology data were analyzed with Clampfit 11.1 (Molecular Devices).

[6] = target: T4, ASIC3 E416Q (Homo sapiens, UniProt Q9UHC3, E416Q); experiment: MPC peptide activity on ASIC3 E416Q mutant (incl. double mutant cycle); format: cell-based; conditions: read-out: EC50 (95% CI)
T4 construct: human ASIC3 (NM_004769.4); P2A-mCherry reporter (C, cleaved yes); expressed in transfected cells; host or cells: CHO cells (85050302, Sigma), transient transfection
T4 sequence (Q9UHC3 1-531 E416Q): T1 sequence (Q9UHC3 1-531) with E416Q
Procedure: as §1, §2, §3

[7] = target: T5, human ASIC3 (acid-sensing ion channel 3) (human) (UniProt Q9UHC3)
T5 sequence: T1 sequence (Q9UHC3 1-531)

[8] = target: human ASIC3 E78Q (human) (UniProt Q9UHC3)
[9] = target: T5, human ASIC3 (acid-sensing ion channel 3) (human); remark: listed apart in the source
[10] = target: T5, human ASIC3 (acid-sensing ion channel 3) (human); remark: listed apart in the source

Molecule: N=C(N)NCCC[C@H](NC(=O)[C@@H]1CCCN1C(=O)[C@@H](N)CCCNC(=N)N)C(=O)N[C@@H](Cc1ccccc1)C(N)=O [RPRFa] (H-RPRF-NH2)
- EC50 [1]: ≥ 21.3 µM

Molecule: N=C(N)NCCC[C@H](NC(=O)[C@@H]1CCCN1C(=O)[C@H](CCCNC(=N)N)NC(=O)[C@@H](N)Cc1c[nH]c2ccccc12)C(=O)N[C@@H](CC1CCCCC1)C(N)=O [WRPR{Cha}a] (H-WRPR[Cha]-NH2)
- EC50 [2]: 2.33 µM

Molecule: CN(C)C(=N)NCCC[C@H](NC(=O)[C@@H]1CCCN1C(=O)[C@H](CCCNC(=N)N)NC(=O)[C@@H](N)Cc1c[nH]c2ccccc12)C(=O)N[C@@H](Cc1ccccc1)C(N)=O [WRP{ADMA}Fa] (H-WRP[Arg(Me2a)]F-NH2)
- EC50 [3]: 4.93 µM
- EC50 [1]: 21.3 µM

Molecule: FRPRF-NH2 [FRPRFa]
- EC50 [2]: 7.84 µM

Molecule: RPRF-COOH: RPRFa without C-terminal amidation (RPRF-OH)
- Mean (I3s/Ipk), arithmetic ([4]; 3 µM peptide): 0.00354
- Mean (I3s/Ipk), arithmetic ([4]; 30 µM peptide): 0.00339 ± 0.00259 and 0.00339

Molecule: RPRF-p-nitroanilide: RPRFa with C-terminal amide replaced by para-nitroanilide (RPRF-pNA)
- I3s/Ipk, SAR - RPRFa - 30 uM [4]: 0.4296 and 0.3944 and 0.359 and 0.3858 and 0.3642
- Mean (I3s/Ipk), arithmetic ([4]; 30 µM peptide): 0.387
- Mean (I3s/Ipk), arithmetic ([4]; 30 µM peptide, listed as RPRF-p-na): 0.387 ± 0.028

Molecule: VRPRFa: site 5 Val (VRPRF-NH2)
- Geometric mean (I3s/Ipk) ([4]; 3 µM peptide): 0.0213
- Geometric mean (I3s/Ipk) ([4]; 30 µM peptide, pH 6.3): 0.157

Molecule: WIPRF-NH2 [WIPRFa]
- EC50 [3]: 1.66 µM
- EC50 [2]: ≥ 24 µM
- EC50 [5]: 20.8 µM
- EC50 [6]: 10.3 µM

Molecule: WKPRF-NH2 [WKPRFa]
- EC50 [2]: 9.08 µM

Molecule: WRPRF-COOH: WRPRFa without C-terminal amidation (WRPRF-OH)
- Geometric mean (I3s/Ipk) ([4]; 3 µM peptide): 0.0303
- Geometric mean (I3s/Ipk) ([4]; 30 µM peptide, pH 6.3): 0.249

Molecule: WRPR{Cha}a (peptide)
- EC50 of I3s/Ipk, QPatch II [7]: 2.33 µM

Molecule: WRP{ADMA}Fa (peptide)
- EC50 of I3s/Ipk, escalating peptide before pH 6.3, manual patch clamp [8]: 4.93 µM
- EC50 of I3s/Ipk, escalating peptide before pH 6.3, manual patch clamp [9]: 21.3 µM

Molecule: RPRF-NH2 [RPRFa]
- EC50 of I3s/Ipk, RPRFa before a pH 6.3 stimulus, manual patch clamp, HEK cells [10]: > 21.3 µM
